The text below walks through data of paper PMC5780510, “Insights into the molecular mechanism of dehalogenation catalyzed by D-2-haloacid dehalogenase from crystal structures” (Scientific Reports, 2018).

The data set concerns the molecule itself. The data set is described as follows: crystal structure; hanging-drop vapour diffusion, 0.1 M MES pH 6.43, 4% PEG20000, 10% PEG8000, potassium sodium tartrate, 277 K; four monomers in each asymmetric unit.

B1: D-2-haloacid dehalogenase HadD AJ1 from Pseudomonas putida AJ1/23, wild type (enzyme)
chain: MNLPDNSIHLQLPRPVCEAIIRPVPEHRADQELSEIYRDLKATFGVPWVGVITQAVAYYRPFFAEAWRRFAPSAKTHFFERASDDIRIRSWELMGQSFVIEGQTDRLREMGYSVREIGQIRAVLDIFDYGNPKYLIFATAIKEGLLSGRTFGGAAGDARCHFPRSPICQIDPIPVMVEEHHAGGTLSQVYADIKQTLQLPFINSDYKAMARWPSYLEQAWGALKPCIDTPAYQAGRFDINARALAALDALPTAYRMSRDDALQAGLSEAQTDELIQVISLFQWMLSGLVLNVTHFKQQALK
notes: D-2-haloacid dehalogenase HadD AJ1, Pseudomonas putida strain AJ1/23; the 909 bp hadd aj1 gene (ENA AAA25831.1) subcloned into pET-28a between NcoI and XhoI; Homotetramer in the crystal; it gives no residue limits; also called WT; D-DEX
What is called stoichiometry N is the number of molecules, sites or subunits per partner or assembly. For the protein B1, the “stoichiometry N” value was determined as 4.
